Measurements taken from US20230035659A1, “Compositions and Methods for TTR Gene Editing and Treating ATTR Amyloidosis Comprising a Corticosteroid or Use Thereof” (Intellia Therapeutics, Inc., priority 2019, published 2023).
Strand notation (5' to 3'): a small letter for the sugar, then the base; units joined by * are phosphorothioate-linked, units joined directly phosphodiester-linked; [ ] holds rarer units or linkages, { } end groups; capitals alone tell only the bases. m = 2'-O-methyl; r = 2'-OH (RNA)

Tested on: TTR
Experiment: TTR editing in primary cyno hepatocytes treated with LNP formulated Spy Cas9 mRNA (SEQ ID NO: 2) and sgRNAs, 12.5 ng mRNA
Format: cell-based, cynomolgus monkey
Details: LNP formulated Spy Cas9 mRNA (SEQ ID NO: 2) and cyno matched sgRNA, lysed 72 hours post treatment
Procedure: Primary liver hepatocytes. Primary human liver hepatocytes (PHH) and primary cynomolgus liver hepatocytes (PCH) (Gibco) were cultured per the manufacturer's protocol (Invitrogen, protocol 11.28.2012). In brief, the cells were thawed and resuspended in hepatocyte thawing medium with supplements (Gibco, Cat. CM7000) followed by centrifugation at 100 g for 10 minutes for human and 80 g for 4 minutes for cyno. The supernatant was discarded and the pelleted cells resuspended in hepatocyte plating medium plus supplement pack (Invitrogen, Cat. A1217601 and CM3000). Cells were counted and plated on Bio-coat collagen I coated 96-well plates (ThermoFisher, Cat. 877272) at a density of 33,000 cells/well for human or 60,000 cells/well for cyno (or 65,000 cells/well when assaying effects on TTR protein, described further below). Plated cells were allowed to settle and adhere for 6 or 24 hours in a tissue culture incubator at 37° C. and 5% CO2 atmosphere. After incubation cells were checked for monolayer formation and media was replaced with hepatocyte culture medium with serum-free supplement pack (Invitrogen, Cat. A1217601 and CM4000).
In general, the lipid nanoparticle components were dissolved in 100% ethanol with the lipid component of various molar ratios. The RNA cargos were dissolved in 25 mM citrate, 100 mM NaCl, pH 5.0, resulting in a concentration of RNA cargo of approximately 0.45 mg/mL. The LNPs were formulated with a lipid amine to RNA phosphate (N:P) molar ratio of about 4.5 or about 6, with the ratio of mRNA to gRNA at 1:1 by weight.
The LNPs were formed by microfluidic mixing of the lipid and RNA solutions using a Precision Nanosystems NanoAssemblr™ Benchtop Instrument, according to the manufacturer's protocol. A 2:1 ratio of aqueous to organic solvent was maintained during mixing using differential flow rates. […]
Additional PCR was performed per the manufacturer's protocols (Illumina) to add chemistry for sequencing. […] The reads were aligned to a reference genome (e.g., the human reference genome (hg38), the cynomologus reference genome (mf5), the rat reference genome (rn6), or the mouse reference genome (mm10)) after eliminating those having low quality scores. The resulting files containing the reads were mapped to the reference genome (BAM files), where reads that overlapped the target region of interest were selected and the number of wild type reads versus the number of reads which contain an insertion, substitution, or deletion was calculated.
The editing percentage (e.g., the “editing efficiency” or “percent editing” or “indel frequency”) is defined as the total number of sequence reads with insertions/deletions (“indels”) or substitutions over the total number of sequence reads, including wild type. […]

B1: G000502: TTR Cyno specific sgRNA modified sequence, SEQ ID NO: 114; guide sequence of CR000689; cross homologous between mouse and cyno (nucleic acid)
guide: mA*mC*mA*rCrArArArUrArCrCrArGrUrCrCrArGrCrGrGrUrUrUrUrArGrAmGmCmUmAmGmAmAmAmUmAmGmCrArArGrUrUrArArArArUrArArGrGrCrUrArGrUrCrCrGrUrUrArUrCrAmAmCmUmUmGmAmAmAmAmAmGmUmGmGmCmAmCmCmGmAmGmUmCmGmGmUmGmCmU*mU*mU*mU
12.5 ng mRNA, 3.9 nM sgRNA, Avg % Edit: 80.70%
